The chains are these.
B1: CPEB3 Ribozyme (parent)
chain: UAACAGGGGGCCACAGCAGAAGCGUUCACGUCGCAGCCCCUGUCAGAUUCUGGUGAAUCUGCGAAUUCUGCUGUAUAUCUC

The variants in the data set derive from B1. The data set is described as follows: self-cleavage, relative activity (ratio to wild type); higher = more cleavage; in vitro, sequencing. The gist of the method:
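CPEB3 self-cleaving ribozyme mutant libraries were made by rounds of error-prone PCR, barcoded, and transcribed in vitro with T7 RNA polymerase for 5 hours at 37°C. Cleavage occurred during transcription and a 15 min DNase I step before EDTA stop. RNAs were reverse transcribed with template switching and Illumina-sequenced, with DNA sequencing mapping barcodes to variants. Relative activity is the variant's cleaved/total read fraction divided by wild type's (minimum 5 reads), averaged across three batches.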
Turning to UAACAGGGGGCCACAGCAGAAGCGUUCACGUCGCAGCCCCUGUCAGAUUCUGGUGAAUCUACGAAUUCUGCUAUAUAUCUC, the self-cleavage was 1.21. Regarding UAACAUGGGGCCACAGCAGAAGCGUUCACGUCGCAGCCCCUGUCAGUUUCUGGUGAAUCUGCGAAUUCUGCUGUAUAUCUC, the self-cleavage was 0.17. As for UAACAGGGGGCCACAGCAGAAGCGUUCACGUCGCAGCCCCUGUCAGAUUCGGGUGAAUCUGCGUAUUCUGCUGUAUAUCUC, the self-cleavage was 0.52. In the case of UAACAGGGGGCCACAGCAGAAGCGUUCAUGUCGCAGCCCCUGUCAGAUUCUGGUGAAUCUGCGAAUUCUGCUGUAUAUCUA it was 0.71. Consider UAACAGGGGUCCACAGCAGAAGCGUCCACGUCGCAGCCCCUGUCAGAUUCUGGUGAAUCUGCGAAUUCUGCUGUAUAUCUC, for which the self-cleavage was determined as 0.28. Turning to UAACAGGGGGCCACAGCAGAAGCGUUCACGUCGCAGCCCCUGCCAGAUUCUGGUGAAACUGCGAAUUCUGCUGUAUAUCUC, the self-cleavage came out at 0.29.

Turning to UAACAGGGGGACGCAGCAGAAGCGUUCACGUCGCAGCCCCUGUCAGAUUCUGGUGAAUCUGCGAAUUCUGCUGUAUAUCUC, the self-cleavage was 0.09. The same measure for UAACAAGGGGCCACAGCAGAAGCGUUCACGUCGCAGCCCCUGUCAGAUUCUGGUGAAUCUGCGAUUUCUGCUGUAUAUCUC: 0.22; for UAACAGGGGGCAACAGCAGAAGCGUUCACGCCGCAGCCCCUGUCAGAUUCUGGUGAAUCUGCGAAUUCUGCUGUAUAUCUC: 1.14. As for UUACAGGGGGCCACAGCCGAAGCGUUCACGUCGCAGCCCCUGUCAGAUUCUGGUGAAUCUGCGAAUUCUGCUGUAUAUCUC, the self-cleavage worked out at 0.28. UAACAGGGGGCCACAGCAGACGCGUUCACGUCGCAGCCCCUGUCAGAUUCUGGUGGAUCUGCGAAUUCUGCUGUAUAUCUC: the self-cleavage worked out at 0.3. In the case of UAACAGGGGGCCACAGCAGUAGCGUUCACGUCGCAGCCCCUGUCAGAUUCCGGUGAAUCUGCGAAUUCUGCUGUAUAUCUC, the self-cleavage worked out at 0.32. The same measure for UAACAGGGGGCCACAGCAGAAGCGUUCACGUCGCAGCCCUUGUCAGAUUCUGGUGAAUCUGCGAAUUCUGCUCUAUAUCUC: 1.22. In the case of UAACGGGGGGCCACAGCAGAAGCGUUCACGUCGCAGCCCCUGUCAGAUUCUGGUGAAUCUGCGAAUUCUGCUGUAUUUCUC it was 0.78. Take UAACAGGGGGCCACAGCGGAAGCGUUCACGUCGCAGCCCCUGUCAGAUUCUGGAGAAUCUGCGAAUUCUGCUGUAUAUCUC: the self-cleavage is 0.8. The same measure for UAACAGGGGGCCACAGCGGAAGCGUUCACGUCGCAGCCCCUGUCAGAUUCUGGCGAAUCUGCGAAUUCUGCUGUAUAUCUC: 0.57; for UAACAGGGGGCCACAGCAGAAGCGUUCACGUCGCAGUCCCUGUCAGAUUCUGGUGAAUCUGCGAAUUCUGCCGUAUAUCUC: 0.79; for UAACAGGGGGCCACAGCAAAAGCGUUCACGUCGCACCCCCUGUCAGAUUCUGGUGAAUCUGCGAAUUCUGCUGUAUAUCUC: 0.14. Consider UAACAGGGGGCCACAGCAGAAGCGUCCACGUCGCAGCCCCUGUAAGAUUCUGGUGAAUCUGCGAAUUCUGCUGUAUAUCUC, for which the self-cleavage was determined as 0.09.

Take UAACAGGGGGCCACAGCAGAAGCGUUCGCGUCGCAGCCCCUGUCAGAUUCUGGUGAAUCAGCGAAUUCUGCUGUAUAUCUC: the self-cleavage came out at 0.32.

Turning to UAACAGGGGGUCAAAGCAGAAGCGUUCACGUCGCAGCCCCUGUCAGAUUCUGGUGAAUCUGCGAAUUCUGCUGUAUAUCUC, the self-cleavage was found to be 0.93.

As for UAACAGGGGGCCACAGCAGAAGGGUUCACGUCGCAGCCCCUGUCAGAUUCUGGUGAAUCUGCUAAUUCUGCUGUAUAUCUC, the self-cleavage was found to be 0.32. For the variant UAACAGGGGGCCACAGCAGAAGCGUUCACGUCGCAGCCCCUGUCAGAUUAUGGUGAAUCUGCGAAUUCUGCUGUAUAUCUC, the self-cleavage worked out at 0.88. The same measure for UAACAGGGGGCCACAGCAGAAGCGUUCACGUCGCAGCCCCUGUCAGAUUCUGGUGAAUCCGCGAAUUCUGCUGUAUAUCUU: 0.74. In the case of UAGCAGGGGGCCACAGCAGAAGCGGUCACGUCGCAGCCCCUGUCAGAUUCUGGUGAAUCUGCGAAUUCUGCUGUAUAUCUC it was 0.45; in that of UAACAGGGGGCCACAGCAGAAGCGUUCACGUCGCAGCCCCUGUCAGAUUCUGGUGAAUCUGCGAAUUCCGCUGUAUAGCUC, 0.61; in that of UAACAGGGGGCCACAGCAGAAGCGUUCACGUCGCAGCCCCUGUCAGAGUCUGGUGACUCUGCGAAUUCUGCUGUAUAUCUC, 1.11.

Take UAACAGGGGGCCACAGCAGAAGCGUCCACGUCGCAGCCCCUGUCAAAUUCUGGUGAAUCUGCGAAUUCUGCUGUAUAUCUC: the self-cleavage came to 0.17.

In the case of UAACAGGGGGCCACAGCAGAAGCGUUCACGUCGCAGCCCAUGUCAGAUUCUGGUGAAUCUGCGAAUUCUGCUGUAAAUCUC, the self-cleavage is 0.28. On to UAACAGUGGGCCACAGCAGAAGCGUUCACGUCGCAGCCCCUGCCAGAUUCUGGUGAAUCUGCGAAUUCUGCUGUAUAUCUC, for which the self-cleavage worked out at 0.38.

Regarding UAACAGUGGGCCACAGCAGAAGCGUUCACGUCGCAGCCCCUGUCGGAUUCUGGUGAAUCUGCGAAUUCUGCUGUAUAUCUC, the self-cleavage worked out at 0.22.

In the case of CAACAGGGGCCCACAGCAGAAGCGUUCACGUCGCAGCCCCUGUCAGAUUCUGGUGAAUCUGCGAAUUCUGCUGUAUAUCUC, the self-cleavage amounted to 0.17. Consider UAACAGGGGGCCACAGCAGAAGCGUUCACGUCGCAGCCCCUGUCAGAUUCAGGUGAACCUGCGAAUUCUGCUGUAUAUCUC, for which the self-cleavage came out at 0.54. On to UAACAGGGGACCACAGCAGAAGCGUUCACGCCGCAGCCCCUGUCAGAUUCUGGUGAAUCUGCGAAUUCUGCUGUAUAUCUC, for which the self-cleavage is 0.2.

These data come from the RNAGym collection of RNA variant scans (doi:10.1093/nar/gkz1192).
